Measurements taken from patent US20070071744A1 (published 2007).
Ends that are not written are not given here.

Experiments:
Assay in all cases: PepSpot peptide array
peptide 43 = target: T1, peptide 43 (human)
T1 peptide: Ac-RYRCSYQNGSLWS
Procedure, shortened: (§1)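 Peptides synthesized on cellulose membranes were blocked, then probed with a primary antibody followed by an HRP-labelled secondary, or with an HRP-labelled primary alone. After T-TBS/TBS washes, chemiluminescence was recorded as light units per peptide as single measurements. A secondary-only incubation served as the non-specific binding control.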

peptide 112 = target: T2, peptide 112 (human)
T2 peptide: Ac-FSEATAELTVSFT
Procedure, shortened: as §1

peptide 126 = target: T3, peptide 126 (human)
T3 peptide: Ac-PKESDSPAGPARQ
Procedure, shortened: as §1

peptide 55 = target: T4, peptide 55 (human)
T4 peptide: Ac-GVFAKPSLSAQPG
Procedure, shortened: as §1

peptide 98 = target: T5, peptide 98 (human)
T5 peptide: Ac-SDPLELVVTGTSV
Procedure, shortened: as §1

B1: monoclonal antibody hGP 5C4 (antibody, V domains shown)
VH: EVKLQESGGGLVQPGRSLKLSCTASGFTFSDYFMSWVRQAPTRGLEWVASISSGGASAYWRDSVKGRFTISRDNAKSALYLQMDSLRSEDTATYFCARGELDFDYWGQGVMVAVSS
VL: ADPNSTLLSASVGDRVTLNCTASQNVYKNLAWYQQKLGEAPRLLLYSANSQTGIPSRFSGSGSGPDFTLTISSLQPEDVASYFCQQYYSGNTFGAGTKLELKR
notes: Rat hybridoma antibody (Lou/C rats), heavy chain gamma 2a, light chain kappa; also called ab 5C4; anti-GPVI mAb 5C4
For B1, the “LU (Light Units)” value (peptide 43) was 64 LU, the “LU (Light Units)” value (peptide 112) was 100 LU and the “LU (Light Units)” value (peptide 126) was 119 LU. For the same binder, the “LU (Light Units)” value (peptide 55) was 810 LU and the “LU (Light Units)” value (peptide 98) was 141 LU.
